The results in this text go back to patent US20230279079A1 (CHANG GUNG MEMORIAL HOSPITAL LINKOU, published 2023).

For test [1], the target named is T1, spike glycoprotein of wild type SARS-CoV-2 virus (SARS-CoV-2, UniProt P0DTC2 14-1273). Put plainly: cell-based or functional assay.
Test [2] has as its target T2, SARS-CoV-2 spike S2 subunit (SARS-CoV-2, UniProt P0DTC2 686-1213).
T2 construct: domain: S2 subunit
Put plainly: ELISA. A general note: ELISA stands for enzyme-linked immunosorbent assay.

The target in test [3] is T1, spike glycoprotein of wild type …. The experiment in a line: cell-based or functional assay. The source holds these as a separate data set.
In test [4] the target is T3, SARS-CoV-2 spike S1 subunit (SARS-CoV-2, UniProt P0DTC2 16-685).
T3 construct: domain: S1 subunit
The experiment in a line: ELISA.

For another test, the target named is T4, SARS spike S1 subunit (severe acute respiratory syndrome …, UniProt P59594 14-667).
T4 construct: domain: S1 subunit
Put plainly: ELISA.

The target in test [5] is T5, SARS-CoV-2 spike receptor binding domain (RBD) (SARS-CoV-2, UniProt P0DTC2 319-541).
T5 construct: also called SARS-CoV-2 RBD
The experiment in a line: ELISA.

In test [6] the target is T6, MERS spike extracellular domain (Middle East respiratory syndrome …, UniProt K9N5Q8 18-1296).
T6 construct: extracellular domain
The experiment in a line: ELISA.

The target in test [7] is T7, Human coronavirus OC43 spike extracellular domain (human coronavirus OC43, UniProt P36334 14-1297).
T7 construct: extracellular domain
Put plainly: ELISA.

T7 sequence (P36334 14-1297): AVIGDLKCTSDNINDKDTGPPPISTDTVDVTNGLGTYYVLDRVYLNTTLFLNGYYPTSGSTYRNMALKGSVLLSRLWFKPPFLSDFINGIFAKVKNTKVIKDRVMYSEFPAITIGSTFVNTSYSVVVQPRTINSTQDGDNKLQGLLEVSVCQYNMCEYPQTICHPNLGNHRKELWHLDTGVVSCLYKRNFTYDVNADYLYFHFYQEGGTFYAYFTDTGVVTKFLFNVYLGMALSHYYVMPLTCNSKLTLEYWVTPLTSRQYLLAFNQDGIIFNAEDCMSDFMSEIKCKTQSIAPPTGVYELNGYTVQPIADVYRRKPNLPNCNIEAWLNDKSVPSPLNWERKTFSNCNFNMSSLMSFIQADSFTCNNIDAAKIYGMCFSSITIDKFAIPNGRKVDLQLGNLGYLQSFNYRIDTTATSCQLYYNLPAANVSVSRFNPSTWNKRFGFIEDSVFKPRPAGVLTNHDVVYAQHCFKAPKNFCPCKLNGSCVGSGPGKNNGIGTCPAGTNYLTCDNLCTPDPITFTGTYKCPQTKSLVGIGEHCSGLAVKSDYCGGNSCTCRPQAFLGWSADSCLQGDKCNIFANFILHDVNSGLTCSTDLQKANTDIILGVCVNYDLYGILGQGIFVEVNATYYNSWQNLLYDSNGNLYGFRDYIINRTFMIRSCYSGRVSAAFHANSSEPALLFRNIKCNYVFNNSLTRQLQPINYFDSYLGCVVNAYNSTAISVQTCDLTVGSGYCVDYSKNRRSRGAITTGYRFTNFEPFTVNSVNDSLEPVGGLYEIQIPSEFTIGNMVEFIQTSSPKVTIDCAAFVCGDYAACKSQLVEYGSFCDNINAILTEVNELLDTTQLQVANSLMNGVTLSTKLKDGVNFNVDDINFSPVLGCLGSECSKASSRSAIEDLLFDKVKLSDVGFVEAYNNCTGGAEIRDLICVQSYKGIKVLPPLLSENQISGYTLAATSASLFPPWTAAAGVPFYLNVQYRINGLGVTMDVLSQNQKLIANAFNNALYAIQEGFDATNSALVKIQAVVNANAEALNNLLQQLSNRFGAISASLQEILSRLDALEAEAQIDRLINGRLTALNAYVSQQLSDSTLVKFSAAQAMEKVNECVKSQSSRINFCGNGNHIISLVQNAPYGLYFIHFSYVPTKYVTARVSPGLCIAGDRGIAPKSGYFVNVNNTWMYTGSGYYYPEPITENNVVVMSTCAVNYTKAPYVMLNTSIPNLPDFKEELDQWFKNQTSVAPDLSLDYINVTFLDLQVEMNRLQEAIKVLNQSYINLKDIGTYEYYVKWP
T6 sequence (K9N5Q8 18-1296): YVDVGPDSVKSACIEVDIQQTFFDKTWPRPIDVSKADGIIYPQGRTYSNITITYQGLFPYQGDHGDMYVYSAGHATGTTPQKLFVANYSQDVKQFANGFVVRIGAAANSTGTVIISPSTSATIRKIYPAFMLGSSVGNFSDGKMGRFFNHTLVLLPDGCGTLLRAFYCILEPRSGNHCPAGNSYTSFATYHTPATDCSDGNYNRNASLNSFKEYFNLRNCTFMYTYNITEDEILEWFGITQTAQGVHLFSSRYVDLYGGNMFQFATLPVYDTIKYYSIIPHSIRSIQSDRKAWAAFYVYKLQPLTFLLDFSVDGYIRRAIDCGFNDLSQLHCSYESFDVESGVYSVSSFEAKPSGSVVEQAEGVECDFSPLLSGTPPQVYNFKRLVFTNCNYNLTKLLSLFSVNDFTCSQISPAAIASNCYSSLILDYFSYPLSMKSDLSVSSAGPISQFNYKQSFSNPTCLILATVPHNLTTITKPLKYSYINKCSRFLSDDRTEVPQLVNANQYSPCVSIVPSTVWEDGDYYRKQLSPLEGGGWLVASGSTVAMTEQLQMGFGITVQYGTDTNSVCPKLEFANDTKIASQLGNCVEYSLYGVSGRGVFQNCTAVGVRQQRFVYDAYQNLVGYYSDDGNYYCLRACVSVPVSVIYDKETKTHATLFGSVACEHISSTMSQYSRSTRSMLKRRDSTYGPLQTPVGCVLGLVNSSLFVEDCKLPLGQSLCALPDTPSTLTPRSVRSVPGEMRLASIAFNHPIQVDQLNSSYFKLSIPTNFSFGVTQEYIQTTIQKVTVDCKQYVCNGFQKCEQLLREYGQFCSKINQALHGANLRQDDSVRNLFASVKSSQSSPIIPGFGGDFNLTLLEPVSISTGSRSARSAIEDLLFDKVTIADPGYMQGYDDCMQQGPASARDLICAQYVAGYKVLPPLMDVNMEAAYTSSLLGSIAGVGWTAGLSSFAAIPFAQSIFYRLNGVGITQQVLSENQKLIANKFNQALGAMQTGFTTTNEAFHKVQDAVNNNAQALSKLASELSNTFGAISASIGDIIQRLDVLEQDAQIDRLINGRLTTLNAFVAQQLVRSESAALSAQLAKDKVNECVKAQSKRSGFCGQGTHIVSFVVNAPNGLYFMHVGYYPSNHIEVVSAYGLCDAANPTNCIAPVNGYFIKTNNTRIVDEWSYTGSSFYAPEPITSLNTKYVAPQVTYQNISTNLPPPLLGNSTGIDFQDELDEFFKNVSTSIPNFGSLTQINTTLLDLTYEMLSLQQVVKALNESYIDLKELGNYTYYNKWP

B1: EY 6A (antibody, V domains shown)
VH: EVQLVESGGGVVQPGRSLRLSCAASAFTFSSYDMHWVRQAPGKGLEWVAVISYDGSNKYYADSVKGRFTISRDNSKNTLYLQMNSLRAEDTAVYYCAKDGGKLWVYYFDYWGQGTTVTVSS
VL: not shown
For B1, the “Ct value of culture supernatant, after 5 days of incubation (virus control 13.0)” value in test [1] was 22.7 Ct. For the same molecule, in test [2], the binding result was “no binding”. Moreover, in test [3], the “Neutralization by FMNT EC50” value worked out at 22.5 nM and the “Neutralization by PRNT EC50” value was 133 nM.

B2: EW 9C-1 (antibody, V domains shown)
VH: EVQLVESGGGVVQPGASLRLSCVASGFTFNNFGFHWVRQAPGKGLEWLAVISYEGSKTYYAESLKGRFTISRDTSKNTVYLQMNSLRAEDTAVYYCARATSIFWFGEGRNWFDPWGQGALVTVSS
VL: EIVMTQSPGTVSLSAGERATLSCRASQNVGTDLAWYVQRPGQAPRLLIYDTSNRATGIPARFSGRGSGTDFTLTIDSLEPEDFAVYYCQQRSNWPLTFGGGTKVEIK
As for B2, the binding result is reported as “no binding” in test [4]; “no binding” with SARS spike S1 subunit; “no binding” in test [5]; “binds” in test [6]; “binds” in test [7]. The “Neutralization by PRNT EC50” value in test [3] came to 133 nM.

B3: FD 10A (antibody, V domains shown)
VH: EVQLVESGGGLVQPGGSLRLSCAASGFTFSSYWMHWVRQAPGKGLVWVSRINSDGSSTSYADSVKGRFTISRDNAKNTLYLQMNSLRAEDTAVYYCANMAFDIWGQGTMVTVSS
VL: not shown
For the molecule B3, the binding result in test [4] is recorded as “no binding”; in the test with SARS spike S1 subunit, “binds”; in test [5], “no binding”; in test [6], “binds”; in test [7] it was “binds”. In addition, the “Neutralization by PRNT EC50” value in test [3] worked out at 111 nM.

B4: FD 1E (antibody, V domains shown)
VH: EVQLLESGGGLVKPGGSLRLSCAASGFTFSSYSMNWVRQAPGKGLEWVSSISSSSSYIYYADSVKGRFTISRDNAKNSLYLQMNSLRAEDTAVYYCASLAAAGPETYYYYGMDVWGQGTMVTVSS
VL: not shown
For B4, the binding result (with SARS spike S1 subunit; in test [5]; in test [2]; in test [6]; in test [7]) was “no binding” in each case. In addition, the “Neutralization by PRNT EC50” value in test [3] is 110 nM.

B5: FD 11E (antibody, V domains shown)
VH: EVQLVESGGGLVKPGGSLRLSCAASGFTFSSYSMNWVRQAPGKGLEWVSSISSSSSYIYYADSVKGRFTISRDNAKNSLYLQMNSLRAEDTAVYYCASLAAAGPETYYYYGMDVWGQGTMVTVSS
VL: not shown
Regarding B5, the binding result (with SARS spike S1 subunit; in test [5]; in test [2]; in test [6]; in test [7]) was “no binding” each time. The “Neutralization by PRNT EC50” value in test [3] turned out to be 70 nM.

B6: FB 9D (antibody, V domains shown)
VH: QVQLVESGAEVKKPGESLKISCQGSGYRFNSYWIAWVRQMPGKGLEWMGSIFPTDSDVRYNPSFQGQVTISADKSISFAYLQWSSLKASDTAIYYCARHWASMVRGVIRASHYYGMDVWGQGTTVTVSS
VL: QPVLTQPPSASGSPGQSVTISCSGASSDIGKYNYVSWYQQLPGKAPKLLIYEVTKRPSGVPDRFSGSKSGNTASLTVSGLQADDEADYYCSSYAFGGSDTRVFGGGTKLTVL
For the molecule B6, the binding result in test [4] was “no binding”; in the test with SARS spike S1 subunit, “no binding”; in test [5], “no binding”; in test [6] it was “binds”.

B7: FB 1E (antibody, V domains shown)
VH: EVQLVESGAEVKKPGESLKISCQGSGYRFNSYWIAWVRQMPGKGLEWMGSIFPTDSDIRYNPSFQGQVTISADKSISIAYLQWSSLKASDTAIYYCARHWASMVRGVIRASHYYGMDVWGQGTTVTVSS
VL: QSVLTQPPSASGSPGQSVTISCSGASSDIGDYNYVSWYQQLPGKAPKLLIYEVTKRPSGVPDRFSGSKSGNTASLTVSGLQADDEADYYCSSYAFGGSDIRVFGGGTKLAVL
As for B7, the binding result is “no binding” in test [4], “no binding” in the test with SARS spike S1 subunit, “no binding” in test [5] and “binds” in test [6]. For the same molecule, the “Neutralization by PRNT EC50” value in test [3] was found to be 36 nM.

B8: FJ 4E (antibody, V domains shown)
VH: QVQLVESGPGLVKPSETLSLTCSVSGGSISSGTYYWSWIRQQPGKGLEWIGYIYNTGRPYYNPFLKSRITISVDSSKNQFSLKLTSVTAADTAVYYCARDEYDSSDSGIQGHWFDPWGQGTLVTVSS
VL: AIRMTQSPSSLSASVGDRVTITCRTSQNINSFLNWYQQKPGKGPNLLIYGAFTLQSGVPSRFSGSGSGTDFTLTISSLQPEDFATYFCQQSYSTPWTFGQGTKVEIK
For B8, the binding result in test [4] is recorded as “no binding”; in the test with SARS spike S1 subunit it was “binds”; in test [5], “no binding”; in test [6] it was “binds”. For the same molecule, the “Neutralization by PRNT EC50” value in test [3] was 75.3 nM.

B9: FG 7A (antibody, V domains shown)
VH: EVQLVESGGGVVQPGRSLRLSCAASGFTFSSYAMHWVRQAPGKGLEWVAVISYDGSNKYYADSVKGRFTISRDNSKNTLYLQMNSLRAEDTAVYYCARSHSGSYRASLDYWGQGTTVTVSS
VL: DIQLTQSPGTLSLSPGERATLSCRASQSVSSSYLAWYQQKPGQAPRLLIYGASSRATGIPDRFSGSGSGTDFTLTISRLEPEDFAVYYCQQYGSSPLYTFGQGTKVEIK
B9: the binding result (in test [4]; with SARS spike S1 subunit; in test [5]; in test [6]; in test [7]) was “no binding” throughout. Also, the “Neutralization by PRNT EC50” value in test [3] is 133 nM.

B10: FD 7C (antibody, V domains shown)
VH: QLQLQESGPGLVKPSETLSLTCTVSGGSISSYYWSWIRQPPGKGLEWIGYIYYSGSTNYNPSLKSRVTISVDTSKNQFSLKLSSVTAADTAVYYCARDYRFGELFGRFAWFDPWGQGTLVTVSS
VL: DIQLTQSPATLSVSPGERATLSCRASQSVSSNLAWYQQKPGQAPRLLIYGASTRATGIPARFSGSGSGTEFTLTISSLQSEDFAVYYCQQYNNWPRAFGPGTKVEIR
For the molecule B10, the binding result (in the test with SARS spike S1 subunit; in test [5]; in test [2]; in test [6]; in test [7]) was “no binding” each time. Besides, the “Neutralization by FMNT EC50” value in test [3] was determined as 35.6 nM.

B11: FD 11A (antibody, V domains shown)
VH: EVQLVESGGGVVQPGRSLRLSCAASGFTFSSYGMHWVRQAPGKGLEWVAVIWYDGSNKYYADSVKGRFTISRDNSKNTLYLQMNSLRAEDTAVYYCAKGPDILTGYYNYYYYGMDVWGQGTMVTVSS
VL: QSVLTQPPSVSGAPGQRVTISCTGSSSNIGAGYDVHWYQQLPGTAPKLLIYGNSNRPSGVPDRFSGSKSGTSASLAITGLQAEDEADYYCQSYDSSLSGFYVVFGGGTKLTVL
Take B11: in test [1], the “Ct value of culture supernatant, after 5 days of incubation (virus control 13.0)” value was 23 Ct and the “fold reduction of virus” value is around 1024 fold. For the same molecule, in test [2], the binding result is reported as “no binding”. In test [3], the “Neutralization by FMNT EC50” value was found to be 3.68 nM and the “Neutralization by PRNT EC50” value is 0.05 nM.

B12: FM 1A (antibody, V domains shown)
VH: EVQLLESGGGVVQPGRSLRLSCAASGFTFSSYGMHWVRQAPGKGLEWVAVIWYDGSNKYYADSVKGRFTISRDNSKNTLYLQMNSLRAEDTAVYYCAREGAVGATRGFDYWGQGTLVTVSS
VL: SYELTQPPSVSVAPGQTARITCGGNNIGSKSVHWYQQKPGQAPVLVVYDDSDRPSGIPERFSGSNSGNTATLTISRVEAGDEADYYCQVWDSSSDQGVFGGGTKLTVL
Take B12: the binding result (in test [4]; with SARS spike S1 subunit; in test [5]; in test [6]; in test [7]) was “no binding” each time. Besides, the “Neutralization by PRNT EC50” value in test [3] was 133 nM.

B13: FJ 1C (antibody, V domains shown)
VH: QVQLQESGPGLVKPSETLSLTCTVSGYSISSGYYWGWIRQPPGKGLEWIGSIYHSGSTYYNPSLKSRVTISVDTSKNQFSLKLSSVTAADTAVYYCARDKALLWFGELFTNLFDYWGQGTLVTVSS
VL: QSALTQPASVSGSPGQSITISCTGTSSDVGGYNYVSWYQQHPGKAPKLMIYEVSNRPSGVSNRFSGSKSGNTASLTISGLQAEDEANYYCSSYTSSSTLVFGGGTKLTVL
For the molecule B13, the binding result is on record as “binds” with SARS spike S1 subunit; “no binding” in test [5]; “no binding” in test [2]; “no binding” in test [6]; “no binding” in test [7]. Besides, the “Neutralization by PRNT EC50” value in test [3] amounted to 55.5 nM.

B14: FI 3A (antibody, V domains shown)
VH: EVQLLESGGGLIQPGGSLRLSCAASGFTVSSNYMSWVRQAPGKGLEWVSVIYSGGSTYYADSVKGRFTISRDNSKNTLYLQMNSLRAEDTAVYYCARDHVRPGMNIWGQGTMVTVSS
VL: not shown
notes: also called FI 03A
Take B14: the “fold reduction of virus” value in test [1] was around 10100 fold. Further, the binding result in test [2] is “no binding”. Further, in test [3], the “Neutralization by FMNT EC50” value is 0.51 nM and the “Neutralization by PRNT EC50” value was determined as 8.67 nM.

B15: FN 2C (antibody, V domains shown)
VH: EVQLLESGGGVVQPGRSLRLSCAASGFNFNNYGMHWVRQAPGKGLEWVATISYEGSKKFYVDSVKGRFTISKDNSKNTLYLQMNSLRVDDTAFYYCAKRREIFWLGEPPLSDAFDFWGQGTMVTVSS
VL: QSVLTQPPSVSGAPGQRVTISCTGSGSNIGAGYDVHWYQFLPGTAPQLLIYGNNNRPSGVPDRFSGSKSGTSASLAITGLQAEDEADYYCQSYDSSLSGSVFGGGTKLTVL
In the case of B15, the binding result (in test [4]; in the test with SARS spike S1 subunit; in test [5]; in test [6]) was “no binding” each time.
